# Measured values: patent US20090042869
# Biological target: recombinant SF2/ASF (Protein One) (UniProt Q07955)
# Sequence (Q07955 whole entry): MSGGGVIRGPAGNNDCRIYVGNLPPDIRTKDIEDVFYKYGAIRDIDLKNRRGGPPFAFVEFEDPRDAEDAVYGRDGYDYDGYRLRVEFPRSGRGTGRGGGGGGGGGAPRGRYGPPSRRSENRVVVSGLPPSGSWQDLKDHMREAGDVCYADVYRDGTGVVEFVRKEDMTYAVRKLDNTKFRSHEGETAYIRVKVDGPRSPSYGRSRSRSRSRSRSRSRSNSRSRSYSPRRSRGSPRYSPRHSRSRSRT
# Clk1 (Cdc2-like kinase), endogenous, from human platelets, sequence (chain, as listed by the source): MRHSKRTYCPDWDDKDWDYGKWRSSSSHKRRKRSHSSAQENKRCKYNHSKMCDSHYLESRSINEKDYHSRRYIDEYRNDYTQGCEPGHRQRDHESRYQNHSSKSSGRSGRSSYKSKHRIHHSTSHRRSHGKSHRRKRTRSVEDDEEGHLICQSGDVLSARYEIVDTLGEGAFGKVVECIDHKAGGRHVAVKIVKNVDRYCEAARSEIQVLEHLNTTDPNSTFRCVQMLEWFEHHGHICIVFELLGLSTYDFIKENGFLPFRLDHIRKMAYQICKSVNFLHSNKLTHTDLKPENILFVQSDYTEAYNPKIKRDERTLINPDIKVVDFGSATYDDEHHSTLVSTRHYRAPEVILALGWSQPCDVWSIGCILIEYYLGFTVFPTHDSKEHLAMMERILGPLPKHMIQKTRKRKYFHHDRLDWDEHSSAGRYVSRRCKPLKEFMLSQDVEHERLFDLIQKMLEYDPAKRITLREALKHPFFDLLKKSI
substance,measurement,value
"Clk1 (Cdc2-like kinase), endogenous, from human platelets",SF2/ASF phosphorylation (immune complex kinase assay),Clk1 from activated platelets (grown on immobilized fibrinogen in the presence of thrombin for 30 minutes) markedly increased SF2/ASF phosphorylation
